For 1 protein, Km results are on record in publication PMC4321536, “Chloroplast-encoded serotonin N-acetyltransferase in the red alga Pyropia yezoensis: gene transition to the nucleus from chloroplasts” (Journal of Experimental Botany, 2014).

A word on the Km: it is the substrate concentration at which the rate is half of its maximum.

Substrate in the data set: NCCc1c[nH]c2ccc(O)cc12
Briefly: HPLC-fluorescence detection of N-acetylserotonin; Lineweaver-Burk plot. The data set is classed as biochemical, Pyropia yezoensis. As to conditions: acetyl-CoA co-substrate (0.5 mM in standard assay), 100 mM potassium phosphate pH 8.8, 55 °C.

B1: PySNAT (Pyropia yezoensis; I2V) (protein)
chain: MVFWKNFFQNSNINASSEKNFKKLIVLDKTCDKIEFKDIYLSSNKNINLYELEQLCDSVGWVKRPLKKVKIALKNSSIIISLIQKKDANSKLVGFARATSDNGFNATIWDVVIHPDFQGLGLGKVVIHQLIQQLRQAEISTITLFAEPDVVSFYKKLGFIKDPDGVKGMFWYPR
notes: full-length chloroplast-encoded protein, 174 aa, calculated 20099 Da, C-terminal His tag kept (pET28b NcoI/XhoI), E. coli BL21(DE3), Ni-NTA; no transit peptide; I2V read from the printed NcoI forward primer (ATG GTC for native ATG ATC)
Take B1: the Km worked out at 467 µM.
